Experiment [1] has as its target T1, hTIGIT mutant T117A (human, UniProt Q495A1).
T1 sequence (TIGIT, looked up): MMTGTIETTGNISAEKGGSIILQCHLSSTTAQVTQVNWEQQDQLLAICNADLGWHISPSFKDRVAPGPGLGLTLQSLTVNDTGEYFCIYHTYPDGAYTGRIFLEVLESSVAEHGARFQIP
Put plainly: SPR (BIACORE), N=2. In general terms: SPR reads the build-up and loss of mass on a sensor chip optically.

The target of experiment [2] is T2, hTIGIT mutant I68A (human, UniProt Q495A1).
T2 sequence (TIGIT, looked up): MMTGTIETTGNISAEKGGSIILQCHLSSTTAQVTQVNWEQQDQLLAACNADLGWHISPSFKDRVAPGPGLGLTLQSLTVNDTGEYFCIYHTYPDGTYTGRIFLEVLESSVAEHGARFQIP
In words: SPR (BIACORE), N=2.

In experiment [3] the target is T3, hTIGIT mutant H111A (human, UniProt Q495A1).
T3 sequence (TIGIT, looked up): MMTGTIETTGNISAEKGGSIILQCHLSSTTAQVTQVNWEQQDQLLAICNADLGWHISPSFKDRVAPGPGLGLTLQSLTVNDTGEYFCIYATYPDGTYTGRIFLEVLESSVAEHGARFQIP
Put plainly: SPR (BIACORE), N=2.

Experiment [4] has as its target T4, hTIGIT mutant N70A (human, UniProt Q495A1).
T4 sequence (TIGIT, looked up): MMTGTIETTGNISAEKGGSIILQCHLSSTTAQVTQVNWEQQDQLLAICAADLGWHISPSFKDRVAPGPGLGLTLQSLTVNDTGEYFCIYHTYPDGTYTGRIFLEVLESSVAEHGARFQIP
In words: SPR (BIACORE), N=2.

Experiment [5] addresses T5, hTIGIT mutant E60A (human, UniProt Q495A1).
T5 sequence (TIGIT, looked up): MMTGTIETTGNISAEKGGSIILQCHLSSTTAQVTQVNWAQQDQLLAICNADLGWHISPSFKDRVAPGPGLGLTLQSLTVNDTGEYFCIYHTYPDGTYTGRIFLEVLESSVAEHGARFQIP
Put plainly: SPR (BIACORE), N=2.

Experiment [6] deals with T6, hTIGIT mutant H76A (human, UniProt Q495A1).
T6 sequence (TIGIT, looked up): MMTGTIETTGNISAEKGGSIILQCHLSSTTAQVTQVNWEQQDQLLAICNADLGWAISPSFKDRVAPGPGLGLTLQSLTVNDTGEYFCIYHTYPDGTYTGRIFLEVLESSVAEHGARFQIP
In words: SPR (BIACORE), N=2.

Experiment [7] deals with T7, full-length human TIGIT on CHO cells (human, UniProt Q495A1 22-244).
T7 construct: also called CHO-hTIGIT; hu TIGIT
T7 sequence: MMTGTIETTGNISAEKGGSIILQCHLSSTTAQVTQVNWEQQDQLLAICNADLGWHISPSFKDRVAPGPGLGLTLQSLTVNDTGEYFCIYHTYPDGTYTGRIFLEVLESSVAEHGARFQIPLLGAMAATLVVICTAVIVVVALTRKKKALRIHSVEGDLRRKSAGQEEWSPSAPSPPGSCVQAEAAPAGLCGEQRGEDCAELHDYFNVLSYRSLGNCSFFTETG
Put plainly: FACS, PVR-Fc on CHO-TIGIT cells; competitor PVR-Fc. Here is the method:
These studies were further validated in CHO-TIGIT PVR blocking experiments in which TIGIT-expressing CHO cells were incubated with labeled PVR-Fc fusion protein in the presence of anti-TIGIT antibody or an human IgG1 control (FIG. 4A).

Experiment [8] has as its target T8, HA-tagged TIGIT (human, UniProt Q495A1 22-244).
T8 sequence: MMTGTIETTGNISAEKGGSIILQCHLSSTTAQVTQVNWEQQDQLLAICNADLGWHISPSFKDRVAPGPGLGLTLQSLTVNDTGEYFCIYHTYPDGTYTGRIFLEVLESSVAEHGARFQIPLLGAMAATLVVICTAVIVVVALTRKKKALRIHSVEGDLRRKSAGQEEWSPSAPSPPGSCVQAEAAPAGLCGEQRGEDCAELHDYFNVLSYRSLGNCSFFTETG
In words: TR-FRET, HA-TIGIT with ST-CD226 on CHO cells; competitor CD226. An excerpt:
To test for the ability of the clones to block the TIGIT-CD226 interaction, TR-FRET (Time-resolved Fluorescence Resonance Energy Transfer) was used. First, human SNAP-tagged (ST) CD226 with non-permeant donor and acceptor fluorophores was expressed and labeled using CHO cells. The human ST-CD226 was co-expressed with HA-tagged TIGIT, in the presence or the absence of the OMT- and SD-derived anti-TIGIT antibody clones.

In experiment [9] the target is T7, full-length human TIGIT on CHO cells. In words: FACS, CHO cells expressing TIGIT. In general terms: Flow cytometry measures light scatter and fluorescence of single cells or particles in a stream.
In experiment [10] the target is T9, human TIGIT protein (human, UniProt Q495A1 22-141, limits assumed).
T9 construct: Recombinant protein (Genentech) used in ELISA screening and as SPR analyte; also called TIGIT antigen
T9 sequence: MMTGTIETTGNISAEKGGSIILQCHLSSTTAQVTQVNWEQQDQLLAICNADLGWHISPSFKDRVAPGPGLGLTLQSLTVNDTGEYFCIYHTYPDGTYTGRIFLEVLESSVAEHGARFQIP
In words: SPR (BIACORE) KD normalized to WT, N=2.

Experiment [11] addresses T10, hTIGIT mutant Q53A (human, UniProt Q495A1).
T10 sequence (TIGIT, looked up): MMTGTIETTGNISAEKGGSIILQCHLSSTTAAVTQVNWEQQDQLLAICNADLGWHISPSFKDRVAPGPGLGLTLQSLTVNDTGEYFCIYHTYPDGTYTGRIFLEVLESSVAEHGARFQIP
Put plainly: SPR (BIACORE) KD normalized to WT, N=2.

For experiment [12], the target named is T11, hTIGIT mutant Y113A (human, UniProt Q495A1).
T11 sequence (TIGIT, looked up): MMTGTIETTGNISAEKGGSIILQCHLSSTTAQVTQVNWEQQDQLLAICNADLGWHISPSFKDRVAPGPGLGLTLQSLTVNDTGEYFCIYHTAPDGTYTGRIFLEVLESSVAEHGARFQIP
In words: SPR (BIACORE) KD normalized to WT, N=2.

The target in experiment [13] is T12, hTIGIT mutant L73A (human, UniProt Q495A1).
T12 sequence (TIGIT, looked up): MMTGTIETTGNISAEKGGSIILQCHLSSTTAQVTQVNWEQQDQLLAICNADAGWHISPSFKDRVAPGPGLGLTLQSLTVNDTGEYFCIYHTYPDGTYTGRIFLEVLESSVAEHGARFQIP
Put plainly: SPR (BIACORE) KD normalized to WT, N=2.

B1: 7.4A3.C96S.Q1E (antibody, V domains shown)
VH: EVQLVQSGSDLKKPGASVRVSCKASGYTFTSYPMNWVRQAPGHGLEWMGWINTNTGNPTYVQGFTGRFVFSLDTSVNTAYLQISSLKAEDTAVYFCARTGGHTYDSYAFDVWGQGTMVTVSS
VL: DIQLTQSPTFLSASVGDRVTITCRASQVISSSLAWYQQNPGKAPKLLIYAASTLQSGVPSRFSGSGSGTEFTLTISSLQPEDFVTYYCQHLHGYPSNFGQGTKVEIK
notes: also called 7.4A3.Q1E.C96S
In general, Kd refers to the concentration at which binding is half-saturated. The low end stands for tighter binding, the high end for weaker binding. For orientation: IC50 means the concentration at which inhibition is half-maximal. Low readings indicate greater potency in that assay, high ones weaker potency in that assay. A word on the EC50: it is the concentration giving half of the maximal effect. A lower EC50 goes with an effect from little substance. Take B1: the Kd in experiment [1] amounted to 3.3 nM; in experiment [2], 4.9 nM; in experiment [3], 151 nM; in experiment [4] it was 10.7 nM; in experiment [5] it was 4.8 nM; in [6], 4.2 nM. Further, the IC50 amounted to 0.38 nM in [7] and 19.3 nM in [8]. In addition, the EC50 in experiment [9] is 3.04 nM. In addition, the “Binding affinity drop vs. WT” value in experiment [10] stood at 1 fold.

B2: 4.1D3 (antibody, V domains shown)
VH: QVQLQQSGPGLVKPSQTLSLTCAISGDSVSSNSAAWNWIRQSPSRGLEWLGKTYYRFKWYSDYAVSVKGRITINPDTSKNQFSLQLNSVTPEDTAVFYCTRESTTYDLLAGPFDYWGQGTLVTVSS
VL: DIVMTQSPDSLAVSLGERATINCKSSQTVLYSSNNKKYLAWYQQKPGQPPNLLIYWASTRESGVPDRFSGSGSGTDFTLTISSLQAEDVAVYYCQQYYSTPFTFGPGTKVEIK
notes: OMT rat-derived human antibody; also called 4.1D3.Q1
For B2, the Kd in [1] is 0.7 nM; in experiment [2] it was 10.5 nM; in experiment [3], 1.9 nM; in experiment [4], 1.7 nM; in experiment [5], 6.1 nM; in experiment [6] it was 0.7 nM. The “Binding affinity drop vs. WT” value in [11] stood at 1.6 fold; in experiment [10] it was 1 fold; in experiment [12], 5.6 fold; in experiment [13], 2.6 fold.

B3: 4.1D3.Q1E (antibody, V domains shown)
VH: EVQLQQSGPGLVKPSQTLSLTCAISGDSVSSNSAAWNWIRQSPSRGLEWLGKTYYRFKWYSDYAVSVKGRITINPDTSKNQFSLQLNSVTPEDTAVFYCTRESTTYDLLAGPFDYWGQGTLVTVSS
VL: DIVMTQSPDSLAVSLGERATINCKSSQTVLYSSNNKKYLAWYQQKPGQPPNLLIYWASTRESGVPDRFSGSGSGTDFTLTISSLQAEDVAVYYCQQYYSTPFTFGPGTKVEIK
Consider B3, for which the IC50 in experiment [7] is 0.29 nM; in experiment [8], 45 nM. In addition, the EC50 in [9] was determined as 1.04 nM.

B4: 10A7 (antibody, V domains shown)
VH: EVQLVESGGGLTQPGKSLKLSCEASGFTFSSFTMHWVRQSPGKGLEWVAFIRSGSGIVFYADAVRGRFTISRDNAKNLLFLQMNDLKSEDTAMYYCARRPLGHNTFDSWGQGTLVTVSS
VL: DIVMTQSPSSLAVSPGEKVTMTCKSSQSLYYSGVKENLLAWYQQKPGQSPKLLIYYASIRFTGVPDRFTGSGSGTDYTLTITSVQAEDMGQYFCQQGINNPLTFGDGTKLEIKR
With B4, the Kd in experiment [1] is 36.4 nM; in experiment [2], 17.1 nM; in experiment [3] it was 33.3 nM; in experiment [4] it was 24.3 nM; in experiment [5], 40.3 nM; in experiment [6], over 500 nM. Further, the entries for the “Binding affinity drop vs. WT” value in experiment [11], in [12] and in experiment [13] were 0.7 fold, 1.2 fold and over 11 fold, respectively.

For the origin of these results see patent publication US20220064286A1 (Genentech, published 2022).
